Source: patent US20150337019A1 (MANUKAMED HOLDINGS LIMITED PARTNERSHIP, published 2015)
Where two headings read alike, the source gives them in different places. The star is where a group is joined. TNBS = trinitrobenzene sulphonic acid, N-terminal block, O=[N+]([O-])c1cc([N+](=O)[O-])c(*)c([N+](=O)[O-])c1; pNA = O=[N+]([O-])c1ccc(N*)cc1

Key:
Assay in all cases: cell-based or functional assay
[1] = target: T1, Cathepsin B from bovine spleen (bovine, UniProt P07688 80-332)
[2] = target: T1, Cathepsin B from bovine spleen; remark: listed apart in the source
[3] = target: T1, Cathepsin B from bovine spleen; remark: listed apart in the source
[4] = target: T1, Cathepsin B from bovine spleen; remark: listed apart in the source
[5] = target: T1, Cathepsin B from bovine spleen; remark: listed apart in the source

Ac-QNGNK-OH (also: MGO-modified, site not given here) [MGO-modified Ac-QNGNK-OH]
Cathepsin B inhibition test, 2 mM peptide [1]: 89.2

H-QNDNK-OH [H-QNDNK-OH]
Cathepsin B inhibition test, 2 mM peptide [1]: 104

Ac-Leu-Ile-Arg-NH2 (also: MGO-modified, site not given here) [MGO-modified Ac-LIR-NH2]
Cathepsin B inhibition test, 2 mM peptide [2]: 72.6

H-QNGNR-OH [H-QNGNR-OH]
Cathepsin B inhibition test, 2 mM peptide [1]: 74.4

H-Met-Gln-Lys-OH (also: MGO-modified, site not given here) [MGO-modified H-MQK-OH]
Cathepsin B inhibition test, 2 mM peptide [3]: 99.5

Ac-Met-Gln-Lys-OH (also: MGO-modified, site not given here) [MGO-modified Ac-MQK-OH]
Cathepsin B inhibition test, 2 mM peptide [3]: 69.2

Ac-NQKNNNQN-OH (also: MGO-modified, site not given here) [MGO-modified Ac-NQKNNNQN-OH]
Cathepsin B inhibition test, 2 mM peptide [4]: 171

Ac-QNGNK-OH [Ac-QNGNK-OH]
Cathepsin B inhibition test, 2 mM peptide [1]: 187

H-QNDNR-OH [H-QNDNR-OH]
Cathepsin B inhibition test, 2 mM peptide [1]: 162

Ac-QNGNR-OH [Ac-QNGNR-OH]
Cathepsin B inhibition test, 2 mM peptide [1]: 101

Ac-Leu-Val-Lys-OH (also: MGO-modified, site not given here) [MGO-modified Ac-LVK-OH]
Cathepsin B inhibition test, 2 mM peptide [2]: 80.8

Ac-KISIHL-OH [Ac-KISIHL-OH]
Cathepsin B inhibition test, 2 mM peptide [5]: 149

Ac-Met-Gln-Lys-OH [Ac-MQK-OH]
Cathepsin B inhibition test, 2 mM peptide [3]: 121

Ac-NQKN-OH (also: MGO-modified, site not given here) [MGO-modified Ac-NQKN-OH]
Cathepsin B inhibition test, 2 mM peptide [4]: 102

{TNBS}-Phe-Ala-Lys-pNA (also: MGO-modified, site not given here) [MGO-modified TNBS-FAK-pNA]
Cathepsin B inhibition test, 2 mM peptide [3]: 122

Ac-Leu-Leu-Lys-NH2 (also: MGO-modified, site not given here) [MGO-modified Ac-LLK-NH2]
Cathepsin B inhibition test, 2 mM peptide [2]: 137

Ac-NQKN-OH [Ac-NQKN-OH]
Cathepsin B inhibition test, 2 mM peptide [4]: 282

Ac-QNDNR-OH [Ac-QNDNR-OH]
Cathepsin B inhibition test, 2 mM peptide [1]: 162

B1: TNBS-FAK-pNA (peptide)
peptide: {TNBS}-Phe-Ala-Lys-pNA
SMILES: C[C@H](NC(=O)[C@H](Cc1ccccc1)Nc1c([N+](=O)[O-])cc([N+](=O)[O-])cc1[N+](=O)[O-])C(=O)N[C@@H](CCCCN)C(=O)Nc1ccc([N+](=O)[O-])cc1
Cathepsin B inhibition test, 2 mM peptide [3]: 99.3

Ac-QNDNK-OH [Ac-QNDNK-OH]
Cathepsin B inhibition test, 2 mM peptide [1]: 167

H-QNGNR-OH (also: MGO-modified, site not given here) [MGO-modified H-QNGNR-OH]
Cathepsin B inhibition test, 2 mM peptide [1]: 85

H-Met-Thr-Arg-OH [H-MTR-OH]
Cathepsin B inhibition test, 2 mM peptide [3]: 143

Ac-Lys-Asn-OH [Ac-KN-OH]
Cathepsin B inhibition test, 2 mM peptide [4]: 150

Ac-KISI-OH [Ac-KISI-OH]
Cathepsin B inhibition test, 2 mM peptide [5]: 133

H-QNDNK-OH (also: MGO-modified, site not given here) [MGO-modified H-QNDNK-OH]
Cathepsin B inhibition test, 2 mM peptide [1]: 68.4

Ac-Leu-Ile-Arg-NH2 [Ac-LIR-NH2]
Cathepsin B inhibition test, 2 mM peptide [2]: 65.4

Ac-QNDNK-OH (also: MGO-modified, site not given here) [MGO-modified Ac-QNDNK-OH]
Cathepsin B inhibition test, 2 mM peptide [1]: 122

Ac-Leu-Ile-Arg-OH (also: MGO-modified, site not given here) [MGO-modified Ac-LIR-OH]
Cathepsin B inhibition test, 2 mM peptide [2]: 0.07

Ac-Leu-Leu-Lys-NH2 [Ac-LLK-NH2]
Cathepsin B inhibition test, 2 mM peptide [2]: 159

Ac-NQKNNN-OH (also: MGO-modified, site not given here) [MGO-modified Ac-NQKNNN-OH]
Cathepsin B inhibition test, 2 mM peptide [4]: 87.5

Ac-Leu-Ile-Arg-OH [Ac-LIR-OH]
Cathepsin B inhibition test, 2 mM peptide [2]: 128

Ac-Leu-Val-Lys-NH2 (also: MGO-modified, site not given here) [MGO-modified Ac-LVK-NH2]
Cathepsin B inhibition test, 2 mM peptide [2]: 80

Ac-Leu-Leu-Lys-OH (also: MGO-modified, site not given here) [MGO-modified Ac-LLK-OH]
Cathepsin B inhibition test, 2 mM peptide [2]: 148

H-QNGNK-OH [H-QNGNK-OH]
Cathepsin B inhibition test, 2 mM peptide [1]: 171

Ac-PFKI-OH [Ac-PFKI-OH]
Cathepsin B inhibition test, 2 mM peptide [5]: 152

Ac-Met-Thr-Arg-OH [Ac-MTR-OH]
Cathepsin B inhibition test, 2 mM peptide [3]: 126

Ac-Cys-Asp-Arg-OH [Ac-CDR-OH]
Cathepsin B inhibition test, 2 mM peptide [3]: 121

Ac-Leu-Val-Lys-OH [Ac-LVK-OH]
Cathepsin B inhibition test, 2 mM peptide [2]: 144

H-Cys-Asp-Arg-OH (also: MGO-modified, site not given here) [MGO-modified H-CDR-OH]
Cathepsin B inhibition test, 2 mM peptide [3]: 96

Ac-NQKNNNQNDN-OH (also: MGO-modified, site not given here) [MGO-modified Ac-NQKNNNQNDN-OH]
Cathepsin B inhibition test, 2 mM peptide [4]: 123

Ac-QNDNR-OH (also: MGO-modified, site not given here) [MGO-modified Ac-QNDNR-OH]
Cathepsin B inhibition test, 2 mM peptide [1]: 132

Ac-Cys-Asp-Arg-OH (also: MGO-modified, site not given here) [MGO-modified Ac-CDR-OH]
Cathepsin B inhibition test, 2 mM peptide [3]: 78.5

Ac-NQKNNN-OH [Ac-NQKNNN-OH]
Cathepsin B inhibition test, 2 mM peptide [4]: 147

Ac-Leu-Val-Lys-NH2 [Ac-LVK-NH2]
Cathepsin B inhibition test, 2 mM peptide [2]: 92.7

Ac-Met-Thr-Arg-OH (also: MGO-modified, site not given here) [MGO-modified Ac-MTR-OH]
Cathepsin B inhibition test, 2 mM peptide [3]: 119

Ac-PFKI-OH (also: MGO-modified, site not given here) [MGO-modified Ac-PFKI-OH]
Cathepsin B inhibition test, 2 mM peptide [5]: 91.5

Ac-Leu-Leu-Lys-OH [Ac-LLK-OH]
Cathepsin B inhibition test, 2 mM peptide [2]: 142

H-Met-Thr-Arg-OH (also: MGO-modified, site not given here) [MGO-modified H-MTR-OH]
Cathepsin B inhibition test, 2 mM peptide [3]: 104

Ac-NQKNNNQNDN-OH [Ac-NQKNNNQNDN-OH]
Cathepsin B inhibition test, 2 mM peptide [4]: 254

H-Cys-Asp-Arg-OH [H-CDR-OH]
Cathepsin B inhibition test, 2 mM peptide [3]: 165

Ac-QNGNR-OH (also: MGO-modified, site not given here) [MGO-modified Ac-QNGNR-OH]
Cathepsin B inhibition test, 2 mM peptide [1]: 88.7

Ac-NQKNNNQN-OH [Ac-NQKNNNQN-OH]
Cathepsin B inhibition test, 2 mM peptide [4]: 290

Ac-KISI-OH (also: MGO-modified, site not given here) [MGO-modified Ac-KISI-OH]
Cathepsin B inhibition test, 2 mM peptide [5]: 92.8

H-QNGNK-OH (also: MGO-modified, site not given here) [MGO-modified H-QNGNK-OH]
Cathepsin B inhibition test, 2 mM peptide [1]: 119
